Consider two molecules from PMC7351999, “Structure of the DOCK2−ELMO1 complex provides insights into regulation of the auto-inhibited state” (Nature Communications, 2020).

Data set [1] concerns the molecule itself. The experiment in a line: SEC; co-expressed and co-purified DOCK2–ELMO1 complex, wild type and dimer mutant; gel filtration buffer 50 mM Tris HCl (pH 8.0), 200 mM NaCl, 2 mM DTT; Superose 6 / Superdex 200 5/150GL. (In general: Size exclusion chromatography separates by hydrodynamic size, large species first.)
Data set [2] has as its target T1, RHOG D38A mutant (human, UniProt P84095 1-179, D38A).
T1 construct: RHOG, human, GeneID 391, amino acids 1–179 with D38A; also called RHOG Asp38 to Ala mutant; source: E. coli BL21 (DE3) CodonPlus, purified (nickel-nitrilotriacetic acid, thrombin cleavage, Superdex 75)
The experiment in a line: ITC; ELMO2^RBD injected into the cell containing GMPPNP-loaded (activated) RHOG; 20 mM Tris-HCl (pH 7.5), 100 mM NaCl, 1 mM DTT; 25 °C. The conditions noted are these: both partners purified.

Data set [3] deals with T2, human RHOG (amino acids 1–179) (human, UniProt P84095 1-179).
T2 construct: RHOG, human, GeneID 391, amino acids 1–179; Loaded with GMPPNP (or GDP) as told for each assay; also called wild-type RHOG; source: E. coli BL21 (DE3) CodonPlus, purified (nickel-nitrilotriacetic acid, thrombin cleavage, Superdex 75)
T2 sequence (P84095 1-179): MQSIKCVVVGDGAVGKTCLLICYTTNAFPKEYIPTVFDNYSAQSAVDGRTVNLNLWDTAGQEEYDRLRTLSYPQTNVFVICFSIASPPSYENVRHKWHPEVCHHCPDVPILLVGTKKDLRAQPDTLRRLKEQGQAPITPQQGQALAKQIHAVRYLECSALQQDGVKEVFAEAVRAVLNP
The data set is described as above. The conditions noted are these: both partners purified.

T1 sequence (P84095 1-179 D38A): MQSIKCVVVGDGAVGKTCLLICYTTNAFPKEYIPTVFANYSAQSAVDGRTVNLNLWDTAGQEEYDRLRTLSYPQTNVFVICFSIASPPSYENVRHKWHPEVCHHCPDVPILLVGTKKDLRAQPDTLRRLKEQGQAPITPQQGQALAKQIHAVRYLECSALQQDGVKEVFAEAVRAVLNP

B1: human DOCK2 (dedicator of cytokinesis 2) (natural protein)
chain: not shown
notes: DOCK2, human; Tag removed with TEV protease; samples for cryo-EM were cross-linked with glutaraldehyde; also called DOCK2^WT; source: High Five insect cells (baculovirus), co-expressed with ELMO1, purified (Strep-Tactin, Resource Q, Superose 6); not shown: double StrepII, C-terminal, cleaved
In general, stoichiometry N refers to a count of units in the complex or per binding partner. B1: the “stoichiometry N” value in data set [1] stood at 2.

B2: N-terminal RBD domain of murine ELMO2 (amino acids 1–80) (domain or fragment, UniProt Q8BHL5 1-80, looked up)
chain: MPPPSDIVKVAIEWPGANAQLLEIDQKRPLASIIKEVCDGWSLPNPEYYTLRYADGPQLYVTEQTRNDIKNGTILQLAVS
notes: also called ELMO2^RBD; wild-type ELMO2^RBD; source: E. coli BL21 (DE3) CodonPlus, purified (GSH resin, thrombin cleavage on the resin, Superdex 75); not shown: GST, N-terminal, cleaved
As usually defined, the Kd is the free concentration of one partner at which half of the binding sites on the other are occupied at equilibrium, for simple one-to-one binding. With B2, the Kd in data set [2] stood at 9 µM; in data set [3] it was 7.8 µM.
